From patent US20220412975A1, “CHARACTERIZING MODULATORS OF ADAMTS-7 AND ADAMTS-12” (The Broad Institute, Inc., priority 2019, published 2022)
*: point of attachment. HiLyteFluor‑488 = fluorophore label at the N-terminus; donor fluorophore = not defined here; K(Quencher) = not defined here; K(quencher) = not defined here; Donor = not defined here; Acm = CC(=O)NC*

Key:
Type in all cases: biochemical
[1] = molecular target: T1, rPro-hCD ADAMTS-7 (SEQ ID NO: 1) (Homo sapiens, UniProt Q9UKP4, A119V/A123T/A127T/A171V/A193G/A200T/A28V/A36P/A42G/A66V/A78S/A97T/D77A/DEL186-188/DEL228-233/E133D/E190K/E213K/E83Q/G114S/G115N/G117S/G196D/G27H/H100Y/H124S/H234Q/K153R/L143F/L192S/L20I/P189H/P201S/P29L/P33S/P79S/Q99P/R118N/R122Q/R174Q/R195Q/R215Q/R218H/R35L/R75A/R76Q/R87Q/R92L/S170E/S199R/S202G/S214H/T110I/T125V/V182M/V208G/V74A/W225K/Y209S); experiment: FRET peptide substrate cleavage by rPro-hCD (SEQ ID NO: 1); conditions: for kcat, Enzyme SEQ ID NO: 1: rPro-hCD: approx. 100 nM enzyme, 10 μM peptide substrate; for cleavage activity with ADAMTS-7 human catalytic domain constructs (in words): rPro-hCD (SEQ ID NO: 1) and FM2 (SEQ ID NO: 2) constructs; for activity profile of modified S1 substrates (in words): S1 peptide with additional hydrophilic moiety, data not shown
T1 construct: rat ADAMTS-7 signal peptide + prodomain (rat 1-217), fusion partner (N); 2xStrep tag (C); 6xHis tag (C); made in house; host or cells: Expi293 cells
T1 sequence (Q9UKP4 with tags, fused parts or gaps with the stated changes): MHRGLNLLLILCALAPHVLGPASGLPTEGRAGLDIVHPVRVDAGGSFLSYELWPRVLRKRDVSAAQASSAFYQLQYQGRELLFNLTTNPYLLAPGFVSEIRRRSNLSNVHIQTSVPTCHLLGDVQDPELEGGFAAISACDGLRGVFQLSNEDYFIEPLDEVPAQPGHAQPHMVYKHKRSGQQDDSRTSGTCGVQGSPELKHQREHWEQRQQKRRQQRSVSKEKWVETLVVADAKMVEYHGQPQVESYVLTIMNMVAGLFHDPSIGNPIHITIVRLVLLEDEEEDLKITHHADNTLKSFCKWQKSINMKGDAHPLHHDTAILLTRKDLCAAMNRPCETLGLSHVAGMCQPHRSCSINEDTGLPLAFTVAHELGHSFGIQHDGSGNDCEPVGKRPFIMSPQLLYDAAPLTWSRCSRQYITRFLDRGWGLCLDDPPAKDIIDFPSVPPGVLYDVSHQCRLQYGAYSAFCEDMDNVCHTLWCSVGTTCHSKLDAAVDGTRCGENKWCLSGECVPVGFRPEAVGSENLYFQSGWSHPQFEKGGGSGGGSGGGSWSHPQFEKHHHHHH
Description: (§1) Purified recombinant ADAMTS-7 (as of SEQ ID NO: 1 or SEQ ID NO: 2) and purified recombinant rADAMTS-7 (rat ADAMTS-7 residues 1-575 with a carboxyl terminal Flag, SEQ ID NO: 3) were used to identify substrates from the TSP1 and COMP candidate peptides. ADAMTS-7 was diluted in reaction buffer (20 mM HEPES pH 8.0, 150 mM NaCl, 5 mM CaCl2, 0.004% Brij, 10 μM ZnCl2) for a concentration of approximately 100 nM and pre-incubated for 2 hr at room temperature prior to reaction start with 10 μM candidate peptide substrates. There were some differences between optimized buffer data and reported 2 mM Zn^2+ buffer data (Liu 2006 FASEB J); for example, the published amount of Zinc in assay buffer caused the purified ADAMTS-7 proteins to precipitate. Candidate FRET substrates based on SEQ ID NO: 4 to 10 were generated through custom synthesis by Anaspec—AnaSpec, EGT (34801 Campus Drive, Fremont, Calif. 94555, USA); as explained by the manufacturer; AnaSpec, EGT Group's pH insensitive HiLyte™ Fluor dyes are a series of fluorescent labeling dyes with fluorescence emissions that span the full visible and near infrared spectrum. HiLyte™ Fluor dyes and AnaSpec's proprietary quenchers QXL™ have been used as fluorophore and quencher pairs for fluorescence resonance energy transfer (FRET) in our Examples in the reaction buffer.
(§2) The TSP substrate sequences indicate the cleavage site (underlined) between glutamate and leucine as determined by mass spectrometry. COMP substrate cleavage products were below the detection limit of the mass spectrometer.

[2] = molecular target: T2, rADAMTS7 (1-575) (Rattus norvegicus, UniProt Q1EHB3); experiment: FRET peptide substrate cleavage by rADAMTS7 (1-575) (SEQ ID NO: 3); conditions: approx. 100 nM enzyme, 10 μM peptide substrate
T2 construct: Flag (C); made in house; host or cells: Expi293 cells
T2 sequence (Q1EHB3 with tags, fused parts or gaps): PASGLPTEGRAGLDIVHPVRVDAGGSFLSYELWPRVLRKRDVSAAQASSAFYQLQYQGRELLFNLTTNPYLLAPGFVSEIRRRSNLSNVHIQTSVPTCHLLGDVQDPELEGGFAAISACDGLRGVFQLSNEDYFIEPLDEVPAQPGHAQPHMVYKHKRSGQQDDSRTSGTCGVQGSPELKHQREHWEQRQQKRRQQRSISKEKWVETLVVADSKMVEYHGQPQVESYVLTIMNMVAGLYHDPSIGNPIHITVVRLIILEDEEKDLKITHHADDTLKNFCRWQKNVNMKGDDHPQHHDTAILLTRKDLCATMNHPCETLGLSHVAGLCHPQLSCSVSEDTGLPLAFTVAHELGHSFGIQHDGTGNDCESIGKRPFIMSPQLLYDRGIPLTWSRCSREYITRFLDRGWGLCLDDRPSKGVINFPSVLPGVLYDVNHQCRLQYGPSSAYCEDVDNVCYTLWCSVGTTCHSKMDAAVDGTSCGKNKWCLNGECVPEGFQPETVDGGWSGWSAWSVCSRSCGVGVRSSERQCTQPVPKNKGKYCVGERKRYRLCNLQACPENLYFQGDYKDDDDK
Description: as §1, §2

[3] = molecular target: T3, rPro-hCD-FM2 ADAMTS-7 (SEQ ID NO: 2) (Homo sapiens, UniProt Q9UKP4, A119V/A123T/A127T/A171V/A193G/A200T/A28V/A36P/A42G/A66V/A78S/A97T/D77A/DEL186-188/DEL228-233/E133D/E190K/E213K/E83Q/G114S/G115N/G117S/G196D/G27H/H100Y/H124S/H234Q/K153R/L143F/L192S/L20I/P189H/P201S/P29L/P33S/P79S/Q235K/Q99P/R118N/R122Q/R174Q/R195Q/R215Q/R218H/R35L/R75A/R76Q/R87Q/R92L/S170E/S199R/S202G/S214H/T110I/T125V/V182M/V208G/V74A/W225K/Y209S); experiment: FRET peptide substrate cleavage by rPro-hCD-FM2 (SEQ ID NO: 2); conditions: approx. 100 nM enzyme, 10 μM peptide substrate
T3 construct: rat ADAMTS-7 signal peptide + prodomain (rat 1-217, Q216K), fusion partner (N); 2xStrep tag (C); 6xHis tag (C); made in house; host or cells: Expi293 cells
T3 sequence (Q9UKP4 with tags, fused parts or gaps with the stated changes): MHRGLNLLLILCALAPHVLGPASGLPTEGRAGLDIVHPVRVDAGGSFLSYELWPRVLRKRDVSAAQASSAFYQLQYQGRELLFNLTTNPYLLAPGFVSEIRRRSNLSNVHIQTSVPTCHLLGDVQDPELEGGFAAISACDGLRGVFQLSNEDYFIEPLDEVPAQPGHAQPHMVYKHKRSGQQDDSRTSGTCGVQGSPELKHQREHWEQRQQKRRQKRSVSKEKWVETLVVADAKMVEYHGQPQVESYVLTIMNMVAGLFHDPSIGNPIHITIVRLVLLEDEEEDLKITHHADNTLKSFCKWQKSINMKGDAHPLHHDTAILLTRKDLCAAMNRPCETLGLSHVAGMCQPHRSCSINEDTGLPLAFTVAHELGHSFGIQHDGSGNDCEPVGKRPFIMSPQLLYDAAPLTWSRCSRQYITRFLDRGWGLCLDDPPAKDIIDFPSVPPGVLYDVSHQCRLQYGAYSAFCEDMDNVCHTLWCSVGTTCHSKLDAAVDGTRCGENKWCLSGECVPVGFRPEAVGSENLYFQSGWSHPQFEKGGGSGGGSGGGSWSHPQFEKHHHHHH
Description: as §1, §2

[4] = molecular target: T4, ADAMTS-7 (Homo sapiens, UniProt Q9UKP4, A119V/A123T/A127T/A171V/A193G/A200T/A28V/A36P/A42G/A66V/A78S/A97T/D77A/DEL186-188/DEL228-233/E133D/E190K/E213K/E83Q/G114S/G115N/G117S/G196D/G27H/H100Y/H124S/H234Q/K153R/L143F/L192S/L20I/P189H/P201S/P29L/P33S/P79S/Q99P/R118N/R122Q/R174Q/R195Q/R215Q/R218H/R35L/R75A/R76Q/R87Q/R92L/S170E/S199R/S202G/S214H/T110I/T125V/V182M/V208G/V74A/W225K/Y209S); experiment: ADAMTS-7 enzymatic activity FRET assay, testing of inhibitory compounds
T4 construct: rat ADAMTS-7 signal peptide + prodomain (rat 1-217), fusion partner (N); 2xStrep tag (C); 6xHis tag (C); made in house; host or cells: Expi293 cells
Description: Purified recombinant ADAMTS-7 (as of SEQ ID NO: 1 or SEQ ID NO: 2) was diluted in reaction buffer (20 mM HEPES pH 8.0, 150 mM NaCl, 5 mM CaCl2, 0.004% Brij, 10 μM ZnCl2) for a concentration of approximately 20 nM. 25 μl of the solution were transferred into each well of a 384-well white microtiter plate (Greiner Bio-One 781075) and 1 μl test compound solution (modulator/inhibitor dissolved in DMSO, at the corresponding concentration) or pure DMSO as a control were added per well. […] Amino acids […] are derived from Thrombospondin-1 sequence (275-289). An additional carboxyl glutamic acid was added after the QXL520 quencher to increase substrate solubility. The microtiter plate was incubated for 120 min at the temperature of 32° C. The increase of fluorescence intensity was measured in appropriate fluorescence plate reader (e.g. TECAN Ultra) using excitation wavelength of 485 nm and emission wavelength of 520 nm. IC50 values were calculated from percentage of inhibition of ADAMTS-7 activity as a function of test compound concentration. IC50 values derived using functional ADAMTS-7 according to SEQ ID NO: 1 or SEQ ID NO: 2, respectively, were not distinguishable, both laying within the experimental error.
The assays to determine the IC50 for ADAMTS inhibition were performed as described earlier herein.

“(HiLyteFluor-488)-KVTEENKELANELRR-K (QXL520)-NH2 ({HiLyteFluor‑488}-KVTEENKELANELRRK(QXL520)-NH2) [TSP1-3, FRET candidate peptide, TSP1 amino acids 300-314]” was tested, and the “kcat, Enzyme SEQ ID NO: 1: rPro-hCD” value [1] was 2e-05 s⁻¹, the “cleavage activity with ADAMTS-7 human catalytic domain constructs (in words)” value (“cleavage activity” below) [1] was “No significant activity” and the “kcat, Enzyme SEQ ID NO: 3: rADAMTS7 (1-575)” value [2] was 2.33e-05 s⁻¹. The “kcat, Enzyme SEQ ID NO: 2: rPro-hCD-FM2” value [3] was 2e-05 s⁻¹.
In the case of “(HiLyteFluor-488)-SSMVLELRGLRT-K(QXL520)-NH2 ({HiLyteFluor‑488}-SSMVLELRGLRTK(QXL520)-NH2) [TSP1-5, FRET peptide substrate, TSP1 amino acids 278-289]”, the “kcat, Enzyme SEQ ID NO: 1: rPro-hCD” value [1] is reported as 3.33e-05 s⁻¹, the “cleavage activity” value [1] is reported as “Activity was observed” and the “kcat, Enzyme SEQ ID NO: 3: rADAMTS7 (1-575)” value [2] is reported as 4.17e-05 s⁻¹. The “kcat, Enzyme SEQ ID NO: 2: rPro-hCD-FM2” value [3] was 3.5e-05 s⁻¹.
In the case of “(HiLyteFluor-488)-DELSSMVLELRGLRT-K(QXL520)-OH ({HiLyteFluor‑488}-DELSSMVLELRGLRTK(QXL520)-OH) [SEQ ID NO: 13, S1 peptide substrate ending in -OH]”, the “activity profile of modified S1 substrates (in words)” value (shortened to “activity profile”) [1] is reported as “not significantly affected”.
For “(HiLyteFluor-488)-SSMVLELRGLRTIVT-K(QXL520)-NH2 ({HiLyteFluor‑488}-SSMVLELRGLRTIVTK(QXL520)-NH2) [TSP1-2, FRET peptide substrate, TSP1 amino acids 278-292]”, the “kcat, Enzyme SEQ ID NO: 1: rPro-hCD” value [1] was 5.33e-05 s⁻¹, the “cleavage activity” value [1] was “cleaved” and the “kcat, Enzyme SEQ ID NO: 3: rADAMTS7 (1-575)” value [2] was 0.000128 s⁻¹. For the same compound, the “kcat, Enzyme SEQ ID NO: 2: rPro-hCD-FM2” value [3] was 4.83e-05 s⁻¹.
With “(Donor) SPGFRCEACPPGYS (K-Quencher) (Donor-SPGFRC(Acm)EAC(Acm)PPGYS-{K(Quencher)}; reading uncertain; also: printed as (Donor) SPGFRCEACPPGYS (K-Quencher)) [COMP2, FRET candidate peptide, COMP amino acids 146-159, Acm modified cysteines]” the “kcat, Enzyme SEQ ID NO: 1: rPro-hCD” value [1] was 6.33e-06 s⁻¹, the “cleavage activity” value [1] was “No activity” and the “kcat, Enzyme SEQ ID NO: 3: rADAMTS7 (1-575)” value [2] was 8.33e-06 s⁻¹. For the same compound, the “kcat, Enzyme SEQ ID NO: 2: rPro-hCD-FM2” value [3] was 6.5e-06 s⁻¹.
For “(HiLyteFluor-488)-DELSSMVLELRGLRT-K(QXL520)-E-NH2 ({HiLyteFluor‑488}-DELSSMVLELRGLRTK(QXL520)E-NH2) [SEQ ID NO: 11, S1 peptide substrate with additional carboxyl glutamic acid after the quencher]”, the “activity profile” value [1] was “not significantly affected”.
Work on `CC(C)(C)C1(CNC(=O)c2cnc(-c3ccccc3)o2)NC(=O)NC1=O` (racemic) [Example 12.4, rac-{[4-tert-butyl-2,5-dioxoimidazolidin-4-yl]methyl}-2-phenyl-1,3-oxazole-5-carboxamide] yielded an IC50 [4] of 480 nM.
For “(HiLyteFluor-488)-DELSSMVLELRGLRT-K(QXL520)-K-NH2 ({HiLyteFluor‑488}-DELSSMVLELRGLRTK(QXL520)K-NH2) [SEQ ID NO: 12, S1 peptide substrate with additional lysine after the quencher]”, the “activity profile” value [1] was “not significantly affected”.
With “(HiLyteFluor-488)-DELSSMVLELRGLRT-K(QXL520)-NH2 ({HiLyteFluor‑488}-DELSSMVLELRGLRTK(QXL520)-NH2) [TSP1-1, FRET peptide substrate for ADAMTS-7/12, TSP1 amino acids 275-289]” the “kcat, Enzyme SEQ ID NO: 1: rPro-hCD” value [1] was 0.00035 s⁻¹, the “cleavage activity” value [1] was “greatest specificity” and the “kcat, Enzyme SEQ ID NO: 3: rADAMTS7 (1-575)” value [2] was 0.000167 s⁻¹. For the same compound, the “kcat, Enzyme SEQ ID NO: 2: rPro-hCD-FM2” value [3] was 0.0004 s⁻¹.
“(HiLyteFluor-488)-EENKELANELRRPPL-K (QXL520)-NH2 ({HiLyteFluor‑488}-EENKELANELRRPPLK(QXL520)-NH2) [TSP1-4, FRET candidate peptide, TSP1 amino acids 303-317]” was tested, and the “kcat, Enzyme SEQ ID NO: 1: rPro-hCD” value [1] was 3.33e-05 s⁻¹, the “cleavage activity” value [1] was “No significant activity” and the “kcat, Enzyme SEQ ID NO: 3: rADAMTS7 (1-575)” value [2] was 4.33e-05 s⁻¹. For the same compound, the “kcat, Enzyme SEQ ID NO: 2: rPro-hCD-FM2” value [3] was 3.5e-05 s⁻¹.
`O=C1NC(=O)[C@](CNC(=O)c2cc(-c3cnn(CC4CC4)c3)no2)(C2CC2)N1` [Example 12.3, N-{[(4R)-4-cyclopropyl-2,5-dioxoimidazolidin-4-yl]methyl}-3-[1-(cyclopropylmethyl)-1H-pyrazol-4-yl]-1,2-oxazole-5-carboxamide] gave an IC50 [4] of 550 nM.
For “(Donor) GMQQSVRTGLPS (K-Quencher) ({donor fluorophore}-GMQQSVRTGLPS-{K(quencher)}; reading uncertain; also: donor fluorophore and quencher not given here, printed as (Donor) GMQQSVRTGLPS (K-Quencher)) [COMP1, FRET candidate peptide, COMP amino acids 73-84]”, the “kcat, Enzyme SEQ ID NO: 1: rPro-hCD” value [1] was 1.22e-05 s⁻¹, the “cleavage activity” value [1] was “No activity” and the “kcat, Enzyme SEQ ID NO: 3: rADAMTS7 (1-575)” value [2] was 8.17e-06 s⁻¹. For the same compound, the “kcat, Enzyme SEQ ID NO: 2: rPro-hCD-FM2” value [3] was 1.27e-05 s⁻¹.
